{"source": "the DeepSol protein solubility set"}
{"experiment": "soluble on expression in E. coli; label from the status in PepcDB or PDB records"}
{"sequence": "MKNLVEEKEAFRFGVSGDIGSFSEEAALLYARKKGLNAHLVHLLDMEGVLNAIENETIDLGILPVVNLLGGLVKPAFQAMGKYSFTPIDEIWHDINQCLLVKTNTQNHKITHIVSHPQGFAQCKKFLRNKFKNAKKIEWIDTAKAAKDLAEGILPPHAAVIASARCAPLYDLKISARNIQDSHLNRTAFILVKKLEHHHHHH", "soluble on expression in E. coli": "not soluble"}
{"sequence": "SNAGQLCCLREDGERCGRAAGNASFSKRIQKSISQKKVKIELDKSARHLYICDYHKNLIQSVRNRRKRKGS", "soluble on expression in E. coli": "soluble"}
{"sequence": "KDFLNPKYTLENFIVGEGNRLAYEVVKEALENLGSLYNPIFIYGSVGTGKTHLLQAAGNEAKKRGYRVIYSSADDFAQAMVEHLKKGTINEFRNMYKSVDLLLLDDVQFLSGKERTQIEFFHIFNTLYLLEKQIILASDRHPQKLDGVSDRLVSRFEGGILVEIELDNKTRFKIIKEKLKEFNLELRKEVIDYLLENTKNVREIEGKIKLIKLKGFEGLERKERKERDKLMQIVEFVANYYAVKVEDILSDKRNKRTSEARKIAMYLCRKVCSASLIEIARAFKRKDHTTVIHAIRSVEEEKKKDRKFKHLVGFLEKQAFDKIC", "soluble on expression in E. coli": "soluble"}
{"sequence": "MAHHHHHHSLRLTPLPQPKRIHYMVKVGDTLSGIFAQLGVPYSILQKILSVDLDHLQLDMIQPGEELELMMDDMGQLSRLIYHMSIVEKAIYTRENDGSFSYDFQEISGEWREILFSGEINGSFSVSARRVGLTSSQVANITQVMKDKIDFSRSLRAGDRFDILVKQQYLGEHNTGNSEIKAISFKLAKGDVSAFLAEDGRFYDRAGNSLERAFNRYPVDKAYRQITSGFNPKRKHPVTGRVVPHNGTDFATPIGAPVYSTGDGKVIVVRKHPYAGNYLVIEHNSVYKTRYLHLDKILVKKGQLVKRGQKIALAGATGRLTGPHLHFEVLVRNRPVDAMKADLPIAKSLSSNQKTSFLARVSEFDHLVQANQQEVALDEG", "soluble on expression in E. coli": "soluble"}
{"sequence": "AEVLLGSSDGGLAFVPSDLSIASGEKITFKNNAGFPHNDLFDKKEVPAGVDVTKISMPEEDLLNAPGEEYSVTLTEKGTYKFYCAPHAGAGMVGKVTVN", "soluble on expression in E. coli": "soluble"}
{"sequence": "MSLAMNNILGLFAHSPLKPLQKHSEKVTECSDLLIPFFQTTFSKNWEQAEEKRLEISQCEREADSLKREIRLKLPRGLFLPIDRTDLLELVTQQDKLANYAKDIAGRMIGRQFGIPEEMQEEFLHYVKRSLDAIHQAHRVIEEMDKLLETGFKGRELKLVNDMIQELDSIEDDTDQMQIKLRKMLYTIESRYNPIDVMFLYKIIEWVGVLADQAQRVGSRIELMLARSEGHHHHHH", "soluble on expression in E. coli": "soluble"}
{"sequence": "MIMANILFIDNFDSFTYNLVDQFRSLGHVVTIYRNNLSADAIEQALLQLDNPVVVLSPGPGAPSETGCMPELLQRLKGKVPMIGICLGHQAIVEAYGGVVAGAGEIIHGKVSMMEHQNHAIYRGLPSPLAIARYHSLVATQVPSALTVTAEVNGLVMSVVNEADKVCGFQFHPESIMTTHGATLLANAIDWALSSTPAQTQFA", "soluble on expression in E. coli": "not soluble"}
{"sequence": "MQQQCDTVSAWQSLRGPGTGGYYLFKTTEGGKTDCTYVKGSNFNDAAQTATYTYGNMGSGNQMTQQTASASISGNAIVVGTDHSEVMYSDGSTCDVVRLNGQIELWIHSSATSNTGNLNSCCTDKFNQEKGSRPEHVVYRSTCPNMPQ", "soluble on expression in E. coli": "soluble"}
{"sequence": "MAVNLYDYANQLEQALRESEEYKAIKEAFANVKANEESKKLFDEFRETQINFQQKQMQGEEIAEEDLQKAQEQAQAIEKDENISALMNAEQKMSQVFQEINQIIVKPLDEIYAD", "soluble on expression in E. coli": "not soluble"}
{"sequence": "GIDPFTQRLNFGDDIPSALRIAKKKRWNSIEEKRISQENELHAYLSKLILAEKERELDDRVKQSDDSQNGGDISKMKSKHDKYLMDMDELFSQVDEKRKKREIPDYLCGKISFELMREPCITPSGITYDRKDIEEHLQRVGHFDPVTRSPLTQDQLIPNLAMKEVIDAFIQENGWVEDY", "soluble on expression in E. coli": "soluble"}
{"sequence": "MGSDKIHHHHHHMRNILEIVKFWFYDYDVTATEIKANVIKIHCNNKSYILKEKGSIKQLLVEINVLEQLEEKGVKAQKLVKTSNSEKYVVYKERYYCLYEYVVGSVLEIKDPENLKNLGSLIGEEIAKLHQALNSVNSNNELVKRELYKLVYEWALPNLEKNEHVDQDVVRTMNQIHSDFKKTITSLRKQIIHRDMHLSNVIFKDNEFQGFIDFELLERNVRVFDLCYCCTSILSELHSDEELRGKWQHIISKIFEGYNKQSILTREELQAIWYVMLSIQVIFITYFVQLPDLLKLNEEMFFWIFANKETIEELIERSVQI", "soluble on expression in E. coli": "not soluble"}
{"sequence": "MFPVSSIGNDISSDLVRRKMNDLPESPTGNNLEALAPGIEKLKQTSIEMVTLLNTLQPGGKCIITGDFQKELAYLQNVILYNVSSLRLDFLGYNAQIIQRSDNTCELTINEPLKNQEISTGNININCPLKDIYNEIRRLNVIFSCGTGDIVDLSSLDLRNVDLDYYDFTDKHMANTILNPFKLNSTNFTNANMFQVNFVSSTQNATISWDYLLKITPVLISISDMYSEEKIKFVESCLNEPGDITEEQLKIMRFAIIKSIPRATLTDKLENELTKEIYKSSSKIINCLNRIKLTEMKEFSSEKIYDYIDIIIEDYENTKENAYLVVPQINYTMDLNIEDSSSEELLSDNTLEKDENSPDNGFEVGEYNTYEAYNSEKQYFTREDYTYDYDLLNAI", "soluble on expression in E. coli": "not soluble"}
{"sequence": "MGSDKIHHHHHHMKESGNFEFDDVQGLLRFGYGKLADTCFMLLKIADASAARQWLSTAPVSSAIAIHPPPDTALQIAFSVQGLRALGIDESIIDGFSDEFVHGMTRNENCSRRLGDIGHNAPKYWKWGEGADVPHILLLLYARKGGLDAWKATVEGEYFSQAFQLLQYLPTSDMGRTDPFGFEDGISQPAIDWADRHDTDSHANDRYTNLLAAGEMVLGYPNEYGQYTARPLIDLQKDRFAVNLPDAKDDPARKDFGRNGTYLVLRQLEQNVPGFWQFLDKVSDSIPEKRERLAASMVGRERNGTPLIAEHIPGILPKDHGNHFTYDLDPKGNHCPVSAHVRRANPRTGDLPTAVTGTGAIALINRLVKILGFGQKPEEDLIASSRFHRLLRRGRSYGPVLAPGDAVKPDAPAAERGLQFICLVANIGRQFEFVQNAWIVNGKFGGLQEEPDPLLGNREPMINGNSTDHFNRPTSSGSMQKTCHLPQFTTVLGGGYFFMPGLRALKYISALPANGNGGSS", "soluble on expression in E. coli": "not soluble"}
{"sequence": "MKEKISEKEYKALIRKIGKEHFDGEKEEYGDGTVGVWTYELRKYKLKPPVKVKYVTQEQFQEYKDSNNQRLIKIETTLAAQGEQIRIQVEQIKELQIEQKAQGETLKLILQTLQKMSDRLDKMEVKMDKMEEKMDKMEGKIDKIENRMDKMEVKMDKMEKRIDKLESKLEHHHHHH", "soluble on expression in E. coli": "not soluble"}
{"sequence": "MGSDKIHHHHHHENLYFQGMIIRYATPDDIEDMVSIFIDAYNFPGPRESVKSSFEISLEVQPDGCLLAFLKDEPVGMGCIFFYNKQAWIGLMGVKKAYQRRGIGTEVFRRLLEIGRRKVDTIRLDASSQGYGLYKKFKFVDEYRTVRYELMERPIKRVEGVVEVNKIPNWVKEIDKKAFGDDRIRVLEAYMRRGARLLCAENEGFGLVYRGKIGPLVADSPRVAEKILLKAFQLGAREIIIPEVNKDALELIKIFKPSQVTSCMRMRLGSKIEEKVDIYYGILAYAKG", "soluble on expression in E. coli": "soluble"}
{"sequence": "GSHMTETVPLILLVPKSRREDLEKAQLAERLRSQFFIDYGVRLPEVLLRDGEGLDDNSIVLLINEIRVEQFTVYFDLMRVVNYSDEVVSFGINPTIHQQGSSQYFWVTHEEGEKLRELGYVLRNALDELYHCLAVTLARNVNEYFGIQETKHMLDQLEAKFPDLLKEVLRHATVQRISEVLQRLLSERVSVRNMKLIMEALALWAPREKDVINLVEHIRGAMARYICHKFANGGELRAVMVSAEVEDVIRKGIRQTSGSTFLSLDPEASANLMDLITLKLDDLLIAHKDLVLLTSVDVRRFIKKMIEGRFPDLEVLSFGEIADSKSVNVIKTI", "soluble on expression in E. coli": "soluble"}
{"sequence": "MSLKHSKIRIAHISDIHIGSRLDKLPQKMVNKIIEENPDLVVITGDLIDSHNVISTDLASFNAFKERNIPIYYTIGNHDIMAGEEYVSSILEYYGIIYLKNQVTQITIGDETIQLVGIDDVQSITKYNEIFNSITPSIHNNIYTILLHHRPQGYKTSVQSGQIDLQLAGHTHDGQVFPFNYIVPLFHSKSYGMYHIKDTSKELILYTHPGSCAWGPHFRTAAKNLITIFSIESSNEGHHHHHH", "soluble on expression in E. coli": "soluble"}
{"sequence": "MRLVEIGRFGAPYALKGGLRFRGEPVVLHLERVYVEGHGWRAIEDLYRVGEELVVHLAGVTDRTLAEALVGLRVYAEVADLPPLEEGRYYYFALIGLPVYVEGRQVGEVVDILDAGAQDVLIIRGVGERLRDRAERLVPLQAPYVRVEEGGIHVDPIPGLFDLEHHHHHH", "soluble on expression in E. coli": "not soluble"}
{"sequence": "MSLCLPTIRKIAIIGAGPSGLVTAKALLAEKAFDQVTLFERRGSPGGVWNYTSTLSNKLPVPSTNPILTTEPIVGPAALPVYPSPLYRDLQTNTPIELMGYCDQSFKPQTLQFPHRHTIQEYQRIYAQPLLPFIKLATDVLDIEKKDGSWVVTYKGTKAGSPISKDIFDAVSICNGHYEVPYIPNIKGLDEYAKAVPGSVLHSSLFREPELFVGESVLVVGGASSANDLVRHLTPVAKHPIYQSLLGGGDIQNESLQQVPEITKFDPTTREIYLKGGKVLSNIDRVIYCTGYLYSVPFPSLAKLKSPETKLIDDGSHVHNVYQHIFYIPDPTLAFVGLALHVVPFPTSQAQAAFLARVWSGRLKLPSKEEQLKWQDELMFSLSGANNMYHSLDYPKDATYINKLHDWCKQATPVLEEEFPSPYWGEKERSIRENMWSIRAKFFGIEPPKEGHHHHHH", "soluble on expression in E. coli": "soluble"}
{"sequence": "MVPITHQNLIEMMTYALVLSGNRVITSGATGTNSAAIKGAMRADPNLLTVILPQSLERQPQESRQQLEQVMHLVENPSNDNLSLAEASYLCNKEIVSRCQQLICFAFHDSRTLLQTCGDAEEQRKVVTLFYFDLEHHHHHH", "soluble on expression in E. coli": "not soluble"}
{"sequence": "MIYVTFTPYGAFGVKDNKEVSGLEDIEYKKLFNEEEIPDIMFKLKTQPNKIADELKEEWGDEIKLETLSTEPFNIGEFLRNNLFKVGKELGYFNNYDEFRKKMHYWSTELTKKVIKSYAQQKDKIIIQVAEAISDLDKTLNLLSERLREWYSLYFPELDHLVNKHEVYANLITKLGKRKNFTKSQLKKILPSKLAGKIAEAAKNSMGGELEDYDLDVIVKFAEEINHLYEKRKELYNYLEKLMNEEAPNITKLAGVSLGARLIGLAGGLEKLAKMPASTIQVLGAEKALFAHLRMGVEPPKHGIIYNHPLIQGSPHWQRGKIARALACKLAIAARADYVGDYIADELLEKLNKRVEEIRRKYPKPPKKKKKEKPKAKKKEKKGKKEKSKKKKDKKKDKKGKKERKVIGKTKSRKLEHHHHHH", "soluble on expression in E. coli": "soluble"}
{"sequence": "MTVDPASHITIPEADLARLRHCNHHDPHGFYGWHETEAGSVIRTRQVGATQVNLLIDDTSHVMTPIGDDIFAIDLGHRERADYRLEVTWPDQEPQVKADPYYFLPTVG", "soluble on expression in E. coli": "not soluble"}
{"sequence": "MGEFIGNEEFQNFMKATGFIQEFTRRLLERSSKNIIKIPDNLSNVNQLTCLVKQFLREQQDLAVKVEKVQENQKNLSDFVKEKLTNCNCHVQLDVRNLLAKEMKLQDLRQDDGLDFSIKLPSTSSTDFTVSLNQVVDADAQQRFDLELLKMFGAGNIPHFQPPPDLYQHHHIPHTSQQVAQENLAMLANVPKLDDNNAYFDTFSPEKSGKRAKKRAAPSSAHEAQPNNGPYKCRDCEKTFRQKHGLNQHLLTHETNGAFECDGCGKRYSRQESVYRHQRSTPCTKYQNLTTVEHDDTGALF", "soluble on expression in E. coli": "not soluble"}
{"sequence": "MAHHHHHHMWRQLMCSYSSKEKLGSKIYTQKKITKREKLLGIVKPFVDENCDSAEPYVIAYYLNNPINLATLKSAYEKVGSQVLYKDPYLYVESCSHFNQQNSSAVFFKNGCMVIWSMNKQNRNKFFHFSKQFLHINSESTIDHYDFEELQVENISNKSYVNNSVIYLTSSNYRTTDKIAISFGLLSAVRLNNLEKKIEKKLFYENDQIENLKKKMKSSNLDHLSKQLFTSKITLHNLRYELNIDQDILDVPEALWELEYQKKLFLNILHIFDIKQRVDLLNHRLSWTLDYLNSFLDYVNQKHSSRLERIIIVIVGLELVLGIMQMGNTIGL", "soluble on expression in E. coli": "not soluble"}
